Experimental data taken from PMC10277598.

Tested on: CsrA-His6
Assay: EMSA
Conditions: 10 mM MgCl2; apparent Kd, linear regression (54.7 nM in Fig. S5); 0.5 nM labeled RNA, 0-400 nM CsrA, 10 mM MgCl2, 100 mM KCl, 32.5 ng total yeast RNA, 20 mM DTT, 7.5% glycerol, 4 U SUPERasin, 37 C 30 min; native PAGE in 1X …

hflK leader RNA (-86 to +48)
Kd: 55 nM
